The values that follow come from paper PMC12661054, “The CIP2A-TOPBP1 axis facilitates mitotic DNA repair via MiDAS and MMEJ” (Nature Communications, 2025).

Square brackets hold non-standard residues; d marks the D form. Ends that are not written are not given here. fluorescein = fluorescein label on the N-terminus; pT = C[C@@H](OP(=O)(O)O)[C@H](N)C(=O)O

This test addresses T1, GST-TOPBP1(BRCT0-2 1-290) WT (human, UniProt Q92547 1-290).
T1 construct: TOPBP1, human, residues 1-290 (BRCT0-2); expressed from pGEX-6P-1, eluted with glutathione, no cleavage described; also called TOPBP1 BRCT0-1-2; TOPBP1 BRCT 0-1-2 WT; source: E. coli BL21(DE3), purified (HiTrap GST, Superdex 200)
The test is described as follows: fluorescence polarisation; 100 nM fluorescein-labelled SLX4 peptide, increasing concentrations of TOPBP1 BRCT fragment; room temperature; 25 mM HEPES pH 7.5, 150 mM NaCl, 1 mM EDTA, 0.25 mM TCEP, 0.002% Tween 20; single site with non-specific component. The conditions noted are these: both partners purified.

B1: Flu-SLX4_pT1260 (peptide)
peptide: fluorescein-GYGTSWLVPA[pT]PLASRSR
modifications: also: phosphothreonine at Thr1260 (position 4 or 11)
notes: residues before the SLX4 stretch, not SLX4; SLX4, human, amino acids 1253-1267, pT1260; also called fluorescein tagged SLX4 pT1260-containing peptide; pThr1260 SLX4 peptide; source: synthetic peptide
Take B1: the binding result is “binds”.
